Results: paper PMC2148182 (The Journal of Cell Biology, 1998)
Where two headings read alike, the source gives them in different places.

What was measured:
yeast actin monomers [1] = molecular target: T1, yeast actin monomers (yeast (S. cerevisiae), UniProt P60010 1-375); assay: co-sedimentation
yeast actin monomers [2] = molecular target: T1, yeast actin monomers; assay: co-sedimentation; remark: listed apart in the source

B1: full-length twinfilin (yeast, recombinant) (natural protein)
chain: MATQSGIVAEQALLHSLNENLSADGIVIIIAKISPDSTSVHQTQVARSFEELVQLASQEREPLYIFYKPEGLDKYFFVSFIPDGSPVRSRMLYASTKNTLARQVGSNSLSTEQPLITDAQDLVDLKNFDSARPAGQNKPLTHDEEMQIEINKQQALLRKNTSVKLVSQDSASPLSLTFRVNSEKPINEILDSEGKNLIIFQIDPSNETIQIVQSDTCPSVDELYIDLPGPSYTIFRQGDSSFFIYSCPSGSKVKDRMIYASNKNGFINYLKNDQKIAFSKVVEIGDFVELDKSLLMATNKEDSLDHGSNPDLPNKSNLKFNKPKGPLRKRRT
stoichiometry N (yeast actin monomers [1]): 1 twinfilin:actin | stoichiometry N (yeast actin monomers [2]): ~1 twinfilin:actin
